From patent publication US20220073604A1 (ARGENX BVBA, published 2022)

Tests used:
[1] = biological target: T1, bacterially produced human IL-6 (human, UniProt P05231 30-212); assay: SPR; purified Fab; IL-6 coated on CM5 chip;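 further: dissociation rate taken from the wash phase, association rate fitted over the injection phase with analyte concentration and dissociation rate as inputs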
T1 construct: also called bactIL-6; prokaryotic IL-6
Description: (§1) From the washing phase the off-rate (kd) was determined, while from the injection phase the on-rate (ka) was calculated using the concentration and off-rate as parameters.

[2] = biological target: T2, eukaryotically produced human IL-6 (human, UniProt P05231 30-212); assay: SPR; purified Fab; IL-6 coated on CM5 chip;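 further: dissociation rate taken from the wash phase, association rate fitted over the injection phase with analyte concentration and dissociation rate as inputs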
T2 construct: also called eukIL-6; Euk IL-6
Description: as §1

[3] = biological target: T1, bacterially produced human IL-6; assay: SPR; purified Fab over biotinylated IL-6 on streptavidin chip
Description: as §1

[4] = biological target: T3, human IL-6 (as added in the B9 and 7TD1 bioassays) (human, UniProt P05231 30-212); assay: cell-based or functional assay
[5] = biological target: T3, human IL-6 (as added in the B9 and 7TD1 …); assay: cell-based or functional assay; remark: listed apart in the source
[6] = biological target: T4, bacterially produced human IL-6 (human, UniProt P05231 30-212); assay: SPR (Biacore), periplasmic Fab
T4 construct: Immobilised on the Biacore chip; also called BACT IL-6 (2-1); bactIL-6

[7] = biological target: T5, eukaryotically produced human IL-6 (human, UniProt P05231 30-212); assay: SPR (Biacore), periplasmic Fab
T5 construct: Immobilised on the Biacore chip; also called Euk IL-6; EUK IL-6 (3-1)

cynomolgus monkey IL-6 = biological target: T6, cynomolgus monkey IL-6 (cynomolgus monkey, UniProt P79341 28-212, limits assumed); assay: SPR (Biacore), periplasmic Fab
T6 construct: Immobilised on the Biacore chip

Binder | Ka [6] | Kd [6] | fold improvement of KD over 28A6 (parental) [6] | fold improvement of ka over 28A6 (parental) [6] | fold improvement of kd over 28A6 (parental) [6] | koff [6] | kon [6] | Ka [7] | Kd [7] | fold improvement of KD over 28A6 (parental) [7] | fold improvement of ka over 28A6 (parental) [7] | fold improvement of kd over 28A6 (parental) [7] | koff [7] | kon [7] | Ka (cynomolgus monkey IL-6) | Kd (cynomolgus monkey IL-6) | fold improvement of KD over 28A6 (parental) (cynomolgus monkey IL-6) | fold improvement of ka over 28A6 (parental) (cynomolgus monkey IL-6) | fold improvement of kd over 28A6 (parental) (cynomolgus monkey IL-6) | koff (cynomolgus monkey IL-6) | also measured
Fab 24E9 (Fab, V domains shown, Fab) VH: EVQLVESGGGLVQPGGSLRLSCAASGFTFSTYAMSWVRQAPGKGPEWVSRISSGGGSTNYADSVKGRFTISRDNAKKTLYLQMKSLKPEDTAVYYCANRAGWGMGDYWGQGTQVTVSS VL: QTVVTQEPSLSVSPGGTVTLTCGLSSGSVTASNYPGWFQQTPGQAPRALIYSTNDRHSGVPSRFSGSISGNKAALTITGAQPEDEADYYCALDIGDITEFGGGTHLTVLG |  |  |  |  |  |  |  |  |  |  |  |  |  |  |  |  |  |  |  |  | Kd [1]: 0.93 nM; koff [1]: 0.00029 s⁻¹; Kd [2]: 0.71 nM; koff [2]: 0.00024 s⁻¹; Ka [3]: 8.38e+08 M⁻¹; Kd [3]: 1.19 nM; koff [3]: 0.000139 s⁻¹; kon [3]: 117000 M⁻¹ s⁻¹
Fab 18C9 (Fab, V domains shown, Fab) VH: EVQLVESGGGLVQPGGSLRLSCAASGFTFSRNAMSWVRQAPGKGLEWVSAINSGGGSTSYADSVKGRFTISRDNAKNTLYLQMNSLKPEDTAVYYCAKEGYTGWKDPMYDYWGQGTQVTVSS VL: LNFMLTQPSALSVTLGQTAKITCQGGSLGSRYAHWYQQKPGQAPVLVIYDDDSRPSGIPERFSGSSSGGRATLTISGAQAEDDGDYYCQSADSSGNASVFGGGTHLTVLG |  |  |  |  |  |  |  |  |  |  |  |  |  |  |  |  |  |  |  |  | Kd [1]: 4.9 nM; koff [1]: 0.00036 s⁻¹; Kd [2]: 2.4 nM; koff [2]: 0.00021 s⁻¹; Ka [3]: 4.67e+07 M⁻¹; Kd [3]: 21.4 nM; koff [3]: 0.00119 s⁻¹; kon [3]: 55600 M⁻¹ s⁻¹
111A7_SDM2_M100A (antibody, V domains shown) VH: EVQLLESGGGLVQPGGSLRLSCAASGFTFSSYAMSWVRQAPGKGPEWVSRISAGGGSTYYGDSVKGRFTISRDNSKNTLYLQMNSLRAEDTAVYYCANRAGWGAGDYWGQGTLVTVSS VL: QTVVTQEPSFSVSPGGTVTLTCGLSSGSVTASNYPGWYQQTPGQAPRALIYSTNDRHSGVPDRFSGSISGNKAALTITGAQAEDEADYYCALDIGDITEFGGGTQLTVL |  |  |  |  |  |  |  |  |  |  |  |  |  |  |  |  |  |  |  |  | IC50, 7TD1 cells [4]: 1.57 pM; Potency relative to 68F2, 7TD1 cells [4]: 0.43
127E2 (germlined variant of 68F2), full-length IgG1 (antibody, V domains shown) VH: EVQLQESGPGLVKPSQTLSLTCTVSGGSITTRYYAWSWIRQPPGKGLEWIGVIDYDGDTYYSPSLKSRVTISVDTSKNQFSLQLSSVTAEDTAVYYCARDPDVVTGFHYDYWGQGTQVTVSS VL: QSALTQPPSVSGSPGQTVTISCAGANNDIGTYAYVSWYQQPPGTAPKLLIYKVTTRASGVPDRFSGSKSGNTASLTISGLQAEDEADYYCASYRNFNNAVFGGGTHLTVL |  |  |  |  |  |  |  |  |  |  |  |  |  |  |  |  |  |  |  |  | IC50, 7TD1 proliferation assay, exp 22.06 (batch 24.06) [5]: 1.38 pM; IC50, 7TD1 proliferation assay, exp 29.06 (batch 17.06) [5]: 1.51 pM; IC50, 7TD1 proliferation assay, exp 29.06 (batch 24.06) [5]: 1.25 pM; Rel. Potency, 7TD1, exp 29.06 (batch 24.06) [5]: 0.45
133A9 (germlined variant of 68F2) (antibody, V domains shown) VH: EVQLQESGPGLVKPSQTLSLTCTVSGGSITTRYYAWSWIRQPPGKGLEWIGVIDYEGDTYYSPSLKSRVTISVDTSKNQFSLKLSSVTAEDTAVYYCARDPDVVTGFHYDYWGQGTMVTVSS VL: QSALTQPPLVSGSPGQTVTISCAGANNDIGTYAYVSWYQQPPGTAPKLMIYKVTTRASGIPDRFSGSISGNTASLTISGLQSEDEADYYCASYRNFNNAVFGTGTKLTVL |  |  |  |  |  |  |  |  |  |  |  |  |  |  |  |  |  |  |  |  | IC50, 7TD1 cells [4]: 0.18 pM; Potency relative to 68F2, 7TD1 cells [4]: 3.66
55E10 (Fab, V domains shown, Periplasmic Fab; Suffix 'g1' not explained; also called 55E10g1) VH: QVQLVESGGGLVQPGGSLRLSCAASGFTFSNYYMTWVRQAPGKGLEWVSSIYSFSGDTAYADSVKGRFTISRDNAKNTLYLQMNSLKSEDTAVYYCTRNLGGVVVTTNGYDYWGQGTQVTVSS VL: DIQMTQSPSSLPTSLGDSVTITCQASQSISDELSWYQQKPGQTPKLLIYGASKLQTGVPSRFSGSGSGTSFTLTISGLEAEDLATYYCLQGYSWPFMFGQGTKVELK | 3.18e+09 M⁻¹ | 0.315 nM | 2.38 fold | 0.81 fold | 2.92 fold | 6.09e-05 s⁻¹ | 193000 M⁻¹ s⁻¹ | 2.62e+09 M⁻¹ | 0.382 nM | 1.52 fold | 0.8 fold | 1.88 fold | 5.59e-05 s⁻¹ | 146000 M⁻¹ s⁻¹ | 2.1e+09 M⁻¹ | 0.476 nM | 11 fold | 1.13 fold | 9.78 fold | 6.88e-05 s⁻¹ | kon (cynomolgus monkey IL-6): 145000 M⁻¹ s⁻¹

Further lines, with some results ahead:

Ka [6] | Kd [6] | fold improvement of KD over 28A6 (parental) [6] | fold improvement of ka over 28A6 (parental) [6] | fold improvement of kd over 28A6 (parental) [6] | koff [6] | kon [6] | Ka [7] | Kd [7] | fold improvement of KD over 28A6 (parental) [7] | fold improvement of ka over 28A6 (parental) [7] | fold improvement of kd over 28A6 (parental) [7] | koff [7] | kon [7] | Ka (cynomolgus monkey IL-6) | Kd (cynomolgus monkey IL-6) | fold improvement of KD over 28A6 (parental) (cynomolgus monkey IL-6) | fold improvement of ka over 28A6 (parental) (cynomolgus monkey IL-6) | fold improvement of kd over 28A6 (parental) (cynomolgus monkey IL-6) | koff (cynomolgus monkey IL-6) | Binder | also measured
3.29e+09 M⁻¹ | 0.304 nM | 2.46 fold | 0.96 fold | 2.56 fold | 6.94e-05 s⁻¹ | 228000 M⁻¹ s⁻¹ | 3.1e+09 M⁻¹ | 0.323 nM | 1.8 fold | 1.1 fold | 1.62 fold | 6.47e-05 s⁻¹ | 201000 M⁻¹ s⁻¹ | 3.2e+09 M⁻¹ | 0.313 nM | 16.8 fold | 2.23 fold | 7.56 fold | 8.9e-05 s⁻¹ | 55C11 (Fab, V domains shown, Periplasmic Fab; Suffix 'f' not explained; also called 55C11f) VH: QVQLVESGGGLVQPGGSLRLSCAASGFTFSNYYMTWVRQAPGKGLEWVSSIYSFSGDTAYADSVKGRFTISRDNAKNTLYLQMNSLKSEDTAVYYCTRNLGGVVVTTNGYDYWGQGTQVTVSS VL: DIQLTQSPSSLSASLGDSVTITCQASQSISDELSWYQQKPGQTPKLLIYGASKLQTGVPSRFSGSGSGTSFTLTISGLEAEDLATYYCLQGYRWPFMFGQGTKVELK | kon (cynomolgus monkey IL-6): 285000 M⁻¹ s⁻¹
2.93e+09 M⁻¹ | 0.341 nM | 2.2 fold | 0.87 fold | 2.53 fold | 7.04e-05 s⁻¹ | 206000 M⁻¹ s⁻¹ | 1.56e+09 M⁻¹ | 0.64 nM | 0.91 fold | 0.58 fold | 1.54 fold | 6.8e-05 s⁻¹ | 106000 M⁻¹ s⁻¹ | 1.18e+09 M⁻¹ | 0.845 nM | 6.21 fold | 0.88 fold | 7.11 fold | 9.46e-05 s⁻¹ | 48H1 (Fab, V domains shown, Periplasmic Fab; Suffix 'g2, R4' not explained; also called 48H1g2, R4) VH: QVQLVESGGGLVQPGGSLRLSCAASGFTFSNYYMTWVRQAPGKGLEWVSSIYSFSGDTAYADSVKGRFTISRDNAKNTLYLQMNSLKSEDTAVYYCTRNLGGVVVTTNGYDYWGQGTQVTVSS VL: DVVMTQSPSSLPTSLGDSVTITCQASQSISDELSWYQQKPGQTPKLLIYGASKLQTGVPSRFSGSGSGTSFTLTISGLEAEDLATYYCLQGYSWPFMFGQGTKVELK | kon (cynomolgus monkey IL-6): 112000 M⁻¹ s⁻¹
2.78e+09 M⁻¹ | 0.359 nM | 2.09 fold | 0.79 fold | 2.63 fold | 6.76e-05 s⁻¹ | 188000 M⁻¹ s⁻¹ | 1.59e+09 M⁻¹ | 0.631 nM | 0.92 fold | 0.55 fold | 1.65 fold | 6.36e-05 s⁻¹ | 101000 M⁻¹ s⁻¹ | 1.77e+09 M⁻¹ | 0.566 nM | 9.28 fold | 1.13 fold | 8.24 fold | 8.17e-05 s⁻¹ | 55A11 (Fab, V domains shown, Periplasmic Fab; Suffix 'd' of the label not explained; also called 55A11d) VH: QVQLVESGGGLVQPGGSLRLSCAASGFTFSNYYMTWVRQAPGKGLEWVSSIYSFSGDTAYADSVKGRFTISRDNAKNTLYLQMNSLKSEDTAVYYCTRNLGGVVVTTNGYDYWGQGTQVTVSS VL: DIQMTQSPSSLPTSLGDSVTITCQASQSISDELSWYQQKPGQTPKLLIYGASRLQTGVPSRFSGRGSGTSFTLTISGLEAEDLATYYCLQGYSWPFMFGQGTKVELK | kon (cynomolgus monkey IL-6): 144000 M⁻¹ s⁻¹
